Measurements reported in publication PMC8301065.
One block for each substance: values may come before it.

Experiments:
[1] = target: human cardiac muscle wild-type α-actin (recombinant) (human) (UniProt P68032); experiment: pyrene-actin polymerization assay; 5 µM c-actin with pyrene-labeled skeletal muscle actin added at 20:1, G-buffer; polymerization induced by 2 mM MgCl2 and 0.1 M KCl; rise of pyrene fluorescence; control without nucleator
[2] = target: human cardiac muscle wild-type α-actin (recombinant) (human) (UniProt P68032)
[3] = target: human cardiac α-actin mutant p.A295S (human)
[4] = target: human cardiac α-actin mutant p.E361G (human)
[5] = target: human cardiac α-actin mutant p.R312H (human)

FH2-domain of the formin mDia3, sequence (O70566 625-1025): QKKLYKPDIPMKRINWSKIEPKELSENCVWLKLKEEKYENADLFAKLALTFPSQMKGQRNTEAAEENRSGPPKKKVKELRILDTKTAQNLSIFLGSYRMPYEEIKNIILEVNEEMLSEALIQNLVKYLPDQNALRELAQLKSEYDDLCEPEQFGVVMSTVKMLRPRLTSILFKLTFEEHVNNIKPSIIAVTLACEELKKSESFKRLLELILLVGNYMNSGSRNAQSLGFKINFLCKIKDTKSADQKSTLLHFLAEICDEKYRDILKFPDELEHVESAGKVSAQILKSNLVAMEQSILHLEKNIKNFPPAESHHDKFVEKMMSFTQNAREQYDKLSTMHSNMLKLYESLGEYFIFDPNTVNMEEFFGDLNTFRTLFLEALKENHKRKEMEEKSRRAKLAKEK

half time of polymerization (t1/2) [1]: 8.6 min
Substance: human cardiac muscle wild-type α-actin (recombinant) (from UniProt P68032 1-377) (natural protein)

half time of polymerization (t1/2) of 5 µM c-actin with 50 nM Arp2/3 complex, pyrene-actin assay (control without nucleator 8.6 min) [2]: 2.1 min
half time of polymerization (t1/2) of 5 µM c-actin with 50 nM Arp2/3 complex, pyrene-actin assay (control without nucleator 12.2 min) [3]: 1.2 min
half time of polymerization (t1/2) of 5 µM c-actin with 50 nM Arp2/3 complex, pyrene-actin assay (control without nucleator 4.0 min) [4]: 1.8 min
half time of polymerization (t1/2) of 5 µM c-actin with 50 nM Arp2/3 complex, pyrene-actin assay (control without nucleator 13.8 min) [5]: 1 min
Substance: Arp2/3 complex isolated from Acanthameba castellani

half time of polymerization (t1/2) of 5 µM c-actin with 50 nM mDia3-FH2, pyrene-actin assay (control without nucleator 8.6 min) [2]: 6.9 min
half time of polymerization (t1/2) of 5 µM c-actin with 50 nM mDia3-FH2, pyrene-actin assay (control without nucleator 12.2 min) [3]: 3.5 min
half time of polymerization (t1/2) of 5 µM c-actin with 50 nM mDia3-FH2, pyrene-actin assay (control without nucleator 4.0 min) [4]: 2.9 min
half time of polymerization (t1/2) of 5 µM c-actin with 50 nM mDia3-FH2, pyrene-actin assay (control without nucleator 13.8 min) [5]: 4.1 min
Substance: FH2-domain of the formin mDia3 (from UniProt O70566 625-1025) (domain or fragment)
